Stoichiometry N data for two substances are collected here from paper PMC4176361.

In assay [1] the target is His-tagged RctB fragment C157 (Vibrio cholerae). Description: SEC; Superdex 200 10/300 GL in RctB buffer; molar mass from peak position against protein standards. (In general: Size exclusion chromatography separates by hydrodynamic size, large species first.)
Assay [2] has the same target. Description: AUC; sedimentation velocity, 50 000 rpm, 20°C; 0.3M NaCl, 0.025M Tris-HCl (pH 8.0), 0.0005M EDTA, 5% (v/v) glycerol; C137, C157 and C208 loaded at 3.6, 15 and 5.8 μM.
Assay [3] addresses His-tagged RctB fragment C208 (Vibrio cholerae). Description: SEC; Superdex 200 10/300 GL in RctB buffer; molar mass from peak position against protein standards.
Assay [4] shares this target. Description: AUC; sedimentation velocity, 50 000 rpm, 20°C; 0.3M NaCl, 0.025M Tris-HCl (pH 8.0), 0.0005M EDTA, 5% (v/v) glycerol; C137, C157 and C208 loaded at 3.6, 15 and 5.8 μM.

Consider “His-tagged RctB fragment C157 (domain or fragment)”, for which the stoichiometry N in assay [1] and in assay [2] was 2 in each case.
In the case of “His-tagged RctB fragment C208 (domain or fragment)”, the stoichiometry N in assay [3] and in assay [4] was 2 each time.

In general, stoichiometry N refers to the number of molecules, sites or subunits per partner or assembly.
